Assay results taken from the supplement of paper PMC10065799, “High-throughput profiling of sequence recognition by tyrosine kinases and SH2 domains using bacterial peptide display” (eLife, 2023).

Target: Grb2 SH2 (UniProt P62993)
Assay: SH2 binding enrichment of the phosphorylated peptide, bacterial display (enrichment ratio); higher = better substrate or ligand; peptides without Tyr show the background
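Wherever SH2 binding enrichment of the phosphorylated peptide, bacterial display is given: peptide library displayed on the E. coli surface as eCPX fusions, selected cells deep-sequenced, score is each peptide's frequency after selection divided by its frequency in the input.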

Sequence of Grb2 SH2 (P62993 whole entry, looked up): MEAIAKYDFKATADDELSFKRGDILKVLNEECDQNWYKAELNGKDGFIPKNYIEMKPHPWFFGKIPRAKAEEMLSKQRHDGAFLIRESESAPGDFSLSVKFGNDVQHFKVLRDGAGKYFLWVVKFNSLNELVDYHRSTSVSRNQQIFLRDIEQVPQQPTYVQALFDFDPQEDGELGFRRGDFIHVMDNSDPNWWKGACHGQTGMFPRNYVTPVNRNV

Sequence | SH2 binding enrichment
KANEFYPVVII [ADAMTS18_Y765_L769I_YF] | 0.626
DIMDLYNQPEP [IL36A_Y96] | 0.879
YNNYGYGNDGF [HNRNPH3_Y161] | 2.52
AVEDQYFCVDC [FHL1_Y207_YF] | 0.849
EGNEQYEGFCV [GRIA3_Y451_R450Q_YF] | 0.84
DHAGTYGLGDR [MAPT_Y18] | 0.797
ATPKGYEPDAS [OTC_Y223] | 0.933
NRVEIYDKTVE [CYFIP1_Y108_E109D] | 1.15
FTRNYYVQAVL [CYBA_Y88_R90Q] | 0.839
AGNPAYRSFSN [IL4R_Y497] | 0.751
ENEGTYVCIAA [ADAMTSL3_Y1365_T1370A] | 0.471
QYPDVYAREEV [CRX_Y67] | 1.05
SLVVPYEPPEV [TP53_Y220_V216L] | 0.789
PLKFLYPNIDR [STAT1_Y668_K673R_YF] | 0.969
LNPDGYEKAFE [CPXM2_Y427_YF] | 0.868
SAPPSHEETVA [LITAF_Y23_Y23H] | 0.62
TESALYGCTIL [MAP3K21_Y724_V728I] | 1

Sequence | SH2 binding enrichment
GHLFACDWISI [BEST1_Y227_Y227C_YF] | 0.945
QIGRKYKKVRF [F8_Y442_R437Q] | 0.675
RREWFYEVIIV [BACE1_Y260_YF] | 0.927
TLKDVYDDGKY [RPS6KA3_Y483] | 0.85
PLQDVYKIGGI [EEF1A2_Y254] | 1.03
PQEVMYAQLDH [KIR3DL2_Y398_T397M] | 0.748
SVQVDYMKTIL [GLYATL2_Y127] | 0.772
RQQEVYLLYKQ [RARRES1_Y159_D158V] | 0.918
KERNQYGEVMV [MMP21_Y347] | 0.93
DVLVEYQEEGR [GNS_Y416_G418E] | 0.894
DTKPAYQNLRQ [BOD1_Y82] | 11.8
SGETEYNPTEA [NBEAL2_Y2748] | 0.803
RRSQSYNPTSG [PLEKHA2_Y185_I186N] | 0.692
FISVGYVDDTL [HLA-B_Y51_Q56L] | 1.05
EQSGSYIWVLA [DLG1_Y895_P899L] | 0.65
DDKQPYEKKAA [HMGB1_Y144] | 0.964

Target: SHP2-C SH2
Assay: as above

Sequence | SH2 binding enrichment
KANEFYPVVII [ADAMTS18_Y765_L769I_YF] | 0.597
DIMDLYNQPEP [IL36A_Y96] | 0.597
YNNYGYGNDGF [HNRNPH3_Y161] | 0.591
AVEDQYFCVDC [FHL1_Y207_YF] | 0.736
EGNEQYEGFCV [GRIA3_Y451_R450Q_YF] | 0.964
DHAGTYGLGDR [MAPT_Y18] | 0.783
ATPKGYEPDAS [OTC_Y223] | 1.02
NRVEIYDKTVE [CYFIP1_Y108_E109D] | 0.504
FTRNYYVQAVL [CYBA_Y88_R90Q] | 0.834
AGNPAYRSFSN [IL4R_Y497] | 0.466
ENEGTYVCIAA [ADAMTSL3_Y1365_T1370A] | 0.402
QYPDVYAREEV [CRX_Y67] | 0.812
SLVVPYEPPEV [TP53_Y220_V216L] | 0.772
PLKFLYPNIDR [STAT1_Y668_K673R_YF] | 0.8
LNPDGYEKAFE [CPXM2_Y427_YF] | 0.77
SAPPSHEETVA [LITAF_Y23_Y23H] | 0.549
TESALYGCTIL [MAP3K21_Y724_V728I] | 0.625

Sequence | SH2 binding enrichment
GHLFACDWISI [BEST1_Y227_Y227C_YF] | 0.806
QIGRKYKKVRF [F8_Y442_R437Q] | 0.622
RREWFYEVIIV [BACE1_Y260_YF] | 0.741
TLKDVYDDGKY [RPS6KA3_Y483] | 0.737
PLQDVYKIGGI [EEF1A2_Y254] | 0.574
PQEVMYAQLDH [KIR3DL2_Y398_T397M] | 6.57
SVQVDYMKTIL [GLYATL2_Y127] | 0.656
RQQEVYLLYKQ [RARRES1_Y159_D158V] | 0.765
KERNQYGEVMV [MMP21_Y347] | 0.825
DVLVEYQEEGR [GNS_Y416_G418E] | 0.696
DTKPAYQNLRQ [BOD1_Y82] | 0.666
SGETEYNPTEA [NBEAL2_Y2748] | 0.628
RRSQSYNPTSG [PLEKHA2_Y185_I186N] | 0.461
FISVGYVDDTL [HLA-B_Y51_Q56L] | 0.896
EQSGSYIWVLA [DLG1_Y895_P899L] | 0.394
DDKQPYEKKAA [HMGB1_Y144] | 0.741

Target: c-Src SH2
Assay: as above

Sequence | SH2 binding enrichment
KANEFYPVVII [ADAMTS18_Y765_L769I_YF] | 0.349
DIMDLYNQPEP [IL36A_Y96] | 0.557
YNNYGYGNDGF [HNRNPH3_Y161] | 1.85
AVEDQYFCVDC [FHL1_Y207_YF] | 0.662
EGNEQYEGFCV [GRIA3_Y451_R450Q_YF] | 0.56
DHAGTYGLGDR [MAPT_Y18] | 0.588
ATPKGYEPDAS [OTC_Y223] | 0.557
NRVEIYDKTVE [CYFIP1_Y108_E109D] | 0.798
FTRNYYVQAVL [CYBA_Y88_R90Q] | 0.591
AGNPAYRSFSN [IL4R_Y497] | 0.431
ENEGTYVCIAA [ADAMTSL3_Y1365_T1370A] | 0.425
QYPDVYAREEV [CRX_Y67] | 0.49
SLVVPYEPPEV [TP53_Y220_V216L] | 0.696
PLKFLYPNIDR [STAT1_Y668_K673R_YF] | 0.818
LNPDGYEKAFE [CPXM2_Y427_YF] | 3.95
SAPPSHEETVA [LITAF_Y23_Y23H] | 0.4
TESALYGCTIL [MAP3K21_Y724_V728I] | 0.46

Sequence | SH2 binding enrichment
GHLFACDWISI [BEST1_Y227_Y227C_YF] | 0.749
QIGRKYKKVRF [F8_Y442_R437Q] | 0.321
RREWFYEVIIV [BACE1_Y260_YF] | 0.526
TLKDVYDDGKY [RPS6KA3_Y483] | 0.528
PLQDVYKIGGI [EEF1A2_Y254] | 0.429
PQEVMYAQLDH [KIR3DL2_Y398_T397M] | 1.21
SVQVDYMKTIL [GLYATL2_Y127] | 0.517
RQQEVYLLYKQ [RARRES1_Y159_D158V] | 0.61
KERNQYGEVMV [MMP21_Y347] | 0.391
DVLVEYQEEGR [GNS_Y416_G418E] | 0.505
DTKPAYQNLRQ [BOD1_Y82] | 0.864
SGETEYNPTEA [NBEAL2_Y2748] | 0.488
RRSQSYNPTSG [PLEKHA2_Y185_I186N] | 0.323
FISVGYVDDTL [HLA-B_Y51_Q56L] | 0.728
EQSGSYIWVLA [DLG1_Y895_P899L] | 0.383
DDKQPYEKKAA [HMGB1_Y144] | 0.606

System: Fer (mouse);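 further: 11-residue human phosphosite peptides and single-mutation variants displayed on the E. coli surface, counted by deep sequencing, each peptide's frequency after selection divided by its frequency in the unselected input library; frequency after pTyr selection over input frequency; kinase dosed for 20-30% of maximal phosphorylation in three min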
Assay: phosphorylation enrichment, bacterial display (enrichment ratio); higher = better substrate or ligand; peptides without Tyr show the background

Sequence | phosphorylation enrichment
KANEFYPVVII [ADAMTS18_Y765_L769I_YF] | 0.456
DIMDLYNQPEP [IL36A_Y96] | 0.66
YNNYGYGNDGF [HNRNPH3_Y161] | 0.566
AVEDQYFCVDC [FHL1_Y207_YF] | 0.7
EGNEQYEGFCV [GRIA3_Y451_R450Q_YF] | 2.87
DHAGTYGLGDR [MAPT_Y18] | 0.3
ATPKGYEPDAS [OTC_Y223] | 0.508
NRVEIYDKTVE [CYFIP1_Y108_E109D] | 0.435
FTRNYYVQAVL [CYBA_Y88_R90Q] | 0.512
AGNPAYRSFSN [IL4R_Y497] | 0.389
ENEGTYVCIAA [ADAMTSL3_Y1365_T1370A] | 1.05
QYPDVYAREEV [CRX_Y67] | 1.93
SLVVPYEPPEV [TP53_Y220_V216L] | 0.666
PLKFLYPNIDR [STAT1_Y668_K673R_YF] | 0.602
LNPDGYEKAFE [CPXM2_Y427_YF] | 0.557
SAPPSHEETVA [LITAF_Y23_Y23H] | 0.524
TESALYGCTIL [MAP3K21_Y724_V728I] | 4.72

Sequence | phosphorylation enrichment
GHLFACDWISI [BEST1_Y227_Y227C_YF] | 0.487
QIGRKYKKVRF [F8_Y442_R437Q] | 0.836
RREWFYEVIIV [BACE1_Y260_YF] | 1.89
TLKDVYDDGKY [RPS6KA3_Y483] | 0.506
PLQDVYKIGGI [EEF1A2_Y254] | 0.679
PQEVMYAQLDH [KIR3DL2_Y398_T397M] | 4.04
SVQVDYMKTIL [GLYATL2_Y127] | 0.644
RQQEVYLLYKQ [RARRES1_Y159_D158V] | 0.611
KERNQYGEVMV [MMP21_Y347] | 0.653
DVLVEYQEEGR [GNS_Y416_G418E] | 0.578
DTKPAYQNLRQ [BOD1_Y82] | 0.385
SGETEYNPTEA [NBEAL2_Y2748] | 0.604
RRSQSYNPTSG [PLEKHA2_Y185_I186N] | 0.458
FISVGYVDDTL [HLA-B_Y51_Q56L] | 0.652
EQSGSYIWVLA [DLG1_Y895_P899L] | 0.526
DDKQPYEKKAA [HMGB1_Y144] | 0.475
